Test results reported in paper PMC10248797, “Ndel1 disfavors dynein–dynactin–adaptor complex formation in two distinct ways” (The Journal of Biological Chemistry, 2023).

B3: Lis1 (in solution) (natural protein, UniProt P43034 1-410, looked up)
chain: MVLSQRQRDELNRAIADYLRSNGYEEAYSVFKKEAELDVNEELDKKYAGLLEKKWTSVIRLQKKVMELESKLNEAKEEFTSGGPLGQKRDPKEWIPRPPEKYALSGHRSPVTRVIFHPVFSVMVSASEDATIKVWDYETGDFERTLKGHTDSVQDISFDHSGKLLASCSADMTIKLWDFQGFECIRTMHGHDHNVSSVAIMPNGDHIVSASRDKTIKMWEVQTGYCVKTFTGHREWVRMVRPNQDGTLIASCSNDQTVRVWVVATKECKAELREHEHVVECISWAPESSYSSISEATGSETKKSGKPGPFLLSGSRDKTIKMWDVSTGMCLMTLVGHDNWVRGVLFHSGGKFILSCADDKTLRVWDYKNKRCMKTLNAHEHFVTSLDFHKTAPYVVTGSVDQTVKVWECR

Tests used:
[1] = target: T1, SNAP-tagged, recombinant full-length human cytoplasmic dynein-1 with all associated accessory chains (human, UniProt Q14204 1-4646; Q13409-3 1-612; O43237 1-492; P63172 1-113; Q9NP97 1-96; P63167 …); assay: cell-based or functional assay
Lis1 (in solution) = target: B3; assay: pull-down; quantitative depletion assay: Ndel1 construct on Magne HaloTag beads via the N-terminal HaloTag; 5 nM Lis1 in solution; binding buffer with 150 mM KCl; SDS-PAGE densitometry; quadratic binding equation; details: both partners purified
[2] = target: T1, SNAP-tagged, recombinant full-length …; assay: pull-down; quantitative depletion assay: 0-600 nM Ndel1 construct coupled to Magne HaloTag beads via the HaloTag; 5 nM dynein in solution, 45 min; binding buffer 30 mM Hepes pH 7.4, 36 mM KCl, 1 mM ADP, 1 mg/ml casein, 0.1% NP-40; supernatant on SDS-PAGE, densitometry; one-site fit with Bmax set to 1; details: both partners purified
[3] = target: T1, SNAP-tagged, recombinant full-length …; assay: pull-down; dynein-Lis1 binding curve (Fig. S4G); one-site fit with Bmax set to 1; who was on the beads is not told for this curve; details: both partners purified
Lis1 = target: T2, Lis1 (UniProt P43034 1-410); assay: pull-down; depletion of 5 nM Lis1 from solution by Ndel1 coupled to Magne HaloTag beads; binding buffer with 150 mM KCl; SDS-PAGE densitometry of the supernatant; quadratic binding equation; details: both partners purified
T2 construct: Lis1; also called ZZ-TEV-Lis1; source: Sf9 cells, purified (IgG Sepharose, TEV cleavage, size-exclusion chromatography); not shown: ZZ, N-terminal, cleaved
T2 sequence (looked up): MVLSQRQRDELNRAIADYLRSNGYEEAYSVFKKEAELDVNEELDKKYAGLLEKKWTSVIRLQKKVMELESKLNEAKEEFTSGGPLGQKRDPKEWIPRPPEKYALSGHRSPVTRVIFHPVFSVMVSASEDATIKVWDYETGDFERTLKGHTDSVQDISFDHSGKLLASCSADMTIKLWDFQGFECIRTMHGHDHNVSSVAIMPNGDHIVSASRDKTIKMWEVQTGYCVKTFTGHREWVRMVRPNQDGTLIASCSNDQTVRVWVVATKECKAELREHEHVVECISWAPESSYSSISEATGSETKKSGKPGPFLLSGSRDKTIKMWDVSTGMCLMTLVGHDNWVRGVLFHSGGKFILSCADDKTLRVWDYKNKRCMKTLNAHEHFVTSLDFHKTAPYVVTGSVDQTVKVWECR

B1: Halo-tagged Ndel1(1-192), N-terminal coiled coil only, with C-terminal 6X-His tag (domain or fragment, UniProt Q9GZM8 1-192, looked up)
chain: MDGEDIPDFSSLKEETAYWKELSLKYKQSFQEARDELVEFQEGSRELEAELEAQLVQAEQRNRDLQADNQRLKYEVEALKEKLEHQYAQSYKQVSVLEDDLSQTRAIKEQLHKYVRELEQANDDLERAKRATIVSLEDFEQRLNQAIERNAFLESELDEKESLLVSVQRLKDEARDLRQELAVRERQQEVTR
notes: Ndel1 residues 1-192; also called NT-Ndel1; ZZ-TEV-Halo-Ndel1(1-192)-His6; source: Sf9, purified (IgG Sepharose, TEV cleavage, SEC); not shown: ZZ, N-terminal, cleaved; HaloTag, N-terminal, kept; His6, C-terminal, kept
Q: For B1, which “landing rate of processive DDB events (smTIRF) with 300 nM NT-Ndel1, against DDB alone” value [1] is on record?
A: ~2 fold reduction

Q: What about the “velocity of DDB (smTIRF) with 300 nM NT-Ndel1, against DDB alone” value [1] of the same binder?
A: ~2 fold reduction

Q: And the Kd (Lis1 (in solution))?
A: ~1.2 nM

Q: And the Kd [2]?
A: 79 nM

B2: Halo-tagged Ndel1 with the C-terminal coiled coil (256-291) deleted, with C-terminal 6X-His tag (natural protein, UniProt Q9GZM8 1-345, looked up)
chain: MDGEDIPDFSSLKEETAYWKELSLKYKQSFQEARDELVEFQEGSRELEAELEAQLVQAEQRNRDLQADNQRLKYEVEALKEKLEHQYAQSYKQVSVLEDDLSQTRAIKEQLHKYVRELEQANDDLERAKRATIVSLEDFEQRLNQAIERNAFLESELDEKESLLVSVQRLKDEARDLRQELAVRERQQEVTRKSAPSSPTLDCEKMDSAVQASLSLPATPVGKGTENTFPSPKAIPNGFGTSPLTPSARISALNINCGVLNGNGTKFSRSGHTSFFDKGAVNGFDPAPPPPGLGSSRPSSAPGMLPLSV
notes: Ndel1 with residues 256-291 deleted; also called Ndel1^ΔCTCC; FL-Ndel1^ΔCTCC; source: Sf9, purified (IgG Sepharose, TEV cleavage, SEC); not shown: ZZ, N-terminal, cleaved; HaloTag, N-terminal, kept; His6, C-terminal, kept
Q: Which Kd [2] does the source give for B2 here?
A: 55 nM

Q: B3 was tested. Which “landing rate of DDB (smTIRF) with 50 nM Lis1 and 50 nM FL-Ndel1^PM together, against DDB alone” value [1] did it give?
A: ~2 fold reduction

B4: Halo-Lis1 (natural protein, UniProt P43034 1-410, looked up)
chain: MVLSQRQRDELNRAIADYLRSNGYEEAYSVFKKEAELDVNEELDKKYAGLLEKKWTSVIRLQKKVMELESKLNEAKEEFTSGGPLGQKRDPKEWIPRPPEKYALSGHRSPVTRVIFHPVFSVMVSASEDATIKVWDYETGDFERTLKGHTDSVQDISFDHSGKLLASCSADMTIKLWDFQGFECIRTMHGHDHNVSSVAIMPNGDHIVSASRDKTIKMWEVQTGYCVKTFTGHREWVRMVRPNQDGTLIASCSNDQTVRVWVVATKECKAELREHEHVVECISWAPESSYSSISEATGSETKKSGKPGPFLLSGSRDKTIKMWDVSTGMCLMTLVGHDNWVRGVLFHSGGKFILSCADDKTLRVWDYKNKRCMKTLNAHEHFVTSLDFHKTAPYVVTGSVDQTVKVWECR
notes: Lis1; also called ZZ-TEV-Halo-Lis1; Lis1-conjugated beads; source: Sf9, purified (IgG Sepharose, TEV cleavage, SEC); not shown: ZZ, N-terminal, cleaved; HaloTag, N-terminal, kept
Q: With B4 as the binder, how does the Kd [3] read?
A: 101 nM

B5: Full-length Ndel1 with N-terminal HaloTag and C-terminal 6X-His tag (natural protein, UniProt Q9GZM8 1-345, looked up)
chain: MDGEDIPDFSSLKEETAYWKELSLKYKQSFQEARDELVEFQEGSRELEAELEAQLVQAEQRNRDLQADNQRLKYEVEALKEKLEHQYAQSYKQVSVLEDDLSQTRAIKEQLHKYVRELEQANDDLERAKRATIVSLEDFEQRLNQAIERNAFLESELDEKESLLVSVQRLKDEARDLRQELAVRERQQEVTRKSAPSSPTLDCEKMDSAVQASLSLPATPVGKGTENTFPSPKAIPNGFGTSPLTPSARISALNIVGDLLRKVGALESKLAACRNFAKDQASRKSYISGNVNCGVLNGNGTKFSRSGHTSFFDKGAVNGFDPAPPPPGLGSSRPSSAPGMLPLSV
notes: Coupled to Magne HaloTag beads through the HaloTag; also called FL-Ndel1; Halo-Ndel1; source: Sf9 cells, purified (IgG Sepharose, TEV cleavage, size-exclusion chromatography); not shown: ZZ, N-terminal, cleaved; HaloTag, N-terminal, kept; His6, C-terminal, kept
Q: Which Kd (Lis1) does the source give for B5 here?
A: 4.6 nM

B6: Full-length phosphomimetic Ndel1 (S198D; T219D; S231D; S242D) with N-terminal HaloTag and C-terminal 6X-His tag (natural protein, UniProt Q9GZM8 1-345, looked up)
chain: MDGEDIPDFSSLKEETAYWKELSLKYKQSFQEARDELVEFQEGSRELEAELEAQLVQAEQRNRDLQADNQRLKYEVEALKEKLEHQYAQSYKQVSVLEDDLSQTRAIKEQLHKYVRELEQANDDLERAKRATIVSLEDFEQRLNQAIERNAFLESELDEKESLLVSVQRLKDEARDLRQELAVRERQQEVTRKSAPSDPTLDCEKMDSAVQASLSLPADPVGKGTENTFPDPKAIPNGFGTDPLTPSARISALNIVGDLLRKVGALESKLAACRNFAKDQASRKSYISGNVNCGVLNGNGTKFSRSGHTSFFDKGAVNGFDPAPPPPGLGSSRPSSAPGMLPLSV
notes: Ndel1 with the four CDK1 sites changed to aspartic acid; also called FL-Ndel1PM; Halo-Ndel1PM; source: Sf9 cells, purified (IgG Sepharose, TEV cleavage, size-exclusion chromatography); not shown: ZZ, N-terminal, cleaved; HaloTag, N-terminal, kept; His6, C-terminal, kept
Q: Which Kd (Lis1) does the source give for B6 here?
A: 3.9 nM

B7: Halo-tagged full-length Ndel1 with the four CDK1 sites mutated to aspartic acid (S198D; T219D; S231D; S242D), with C-terminal 6X-His tag (natural protein, UniProt Q9GZM8 1-345, looked up)
chain: MDGEDIPDFSSLKEETAYWKELSLKYKQSFQEARDELVEFQEGSRELEAELEAQLVQAEQRNRDLQADNQRLKYEVEALKEKLEHQYAQSYKQVSVLEDDLSQTRAIKEQLHKYVRELEQANDDLERAKRATIVSLEDFEQRLNQAIERNAFLESELDEKESLLVSVQRLKDEARDLRQELAVRERQQEVTRKSAPSDPTLDCEKMDSAVQASLSLPADPVGKGTENTFPDPKAIPNGFGTDPLTPSARISALNIVGDLLRKVGALESKLAACRNFAKDQASRKSYISGNVNCGVLNGNGTKFSRSGHTSFFDKGAVNGFDPAPPPPGLGSSRPSSAPGMLPLSV
notes: Ndel1 with four phosphomimetic mutations; also called FL-Ndel1^PM; Ndel1^PM; source: Sf9, purified (IgG Sepharose, TEV cleavage, SEC); not shown: ZZ, N-terminal, cleaved; HaloTag, N-terminal, kept; His6, C-terminal, kept
Q: Which “processive landing rate of DDB (smTIRF) with 50 nM FL-Ndel1^PM, against DDB alone” value [1] does the source give for B7 here?
A: 10 fold reduction

Q: And the Kd (Lis1 (in solution))?
A: ~4 nM

B8: Halo-tagged full-length Ndel1 with C-terminal 6X-His tag (natural protein, UniProt Q9GZM8 1-345, looked up)
chain: MDGEDIPDFSSLKEETAYWKELSLKYKQSFQEARDELVEFQEGSRELEAELEAQLVQAEQRNRDLQADNQRLKYEVEALKEKLEHQYAQSYKQVSVLEDDLSQTRAIKEQLHKYVRELEQANDDLERAKRATIVSLEDFEQRLNQAIERNAFLESELDEKESLLVSVQRLKDEARDLRQELAVRERQQEVTRKSAPSSPTLDCEKMDSAVQASLSLPATPVGKGTENTFPSPKAIPNGFGTSPLTPSARISALNIVGDLLRKVGALESKLAACRNFAKDQASRKSYISGNVNCGVLNGNGTKFSRSGHTSFFDKGAVNGFDPAPPPPGLGSSRPSSAPGMLPLSV
notes: Ndel1; 345 residues by the printed range 194-345; also called FL-Ndel1; ZZ-TEV-Halo-Ndel1-His6; source: Sf9, purified (IgG Sepharose, TEV cleavage, SEC); not shown: ZZ, N-terminal, cleaved; HaloTag, N-terminal, kept; His6, C-terminal, kept
Q: Which “landing rate of processive DDB events (smTIRF) with 300 nM FL-Ndel1, against DDB alone” value [1] does the source give for B8 here?
A: ~5 fold reduction

Q: What about the “processive landing rate of DDB (smTIRF) with 50 nM FL-Ndel1, against DDB alone” value [1] of the same binder?
A: 1.7 fold reduction

Q: What about the “velocity of DDB (smTIRF) with 300 nM FL-Ndel1, against DDB alone” value [1] of the same binder?
A: ~2 fold reduction

Q: What about the Kd (Lis1 (in solution)) of the same binder?
A: ~4 nM

Q: What about the Kd [2] of the same binder?
A: ~33 nM
